Measured values published in patent publication US20200164032A1 (WASHINGTON UNIVERSITY, published 2020).

Experiments:
murine CCL2 [1] = molecular target: T1, murine CCL2 (mouse, UniProt P10148 24-148); experiment: SPR, R17 on CM5 chip; t1/2
T1 construct: also called mCCL2

murine CCL3 = molecular target: T2, murine CCL3 (mouse, UniProt P10855 24-92); experiment: SPR, R17 on CM5 chip; t1/2
T2 construct: also called mCCL3
T2 sequence: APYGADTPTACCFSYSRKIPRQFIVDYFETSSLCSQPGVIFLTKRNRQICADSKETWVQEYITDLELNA

murine CCL4 = molecular target: T3, murine CCL4 (mouse, UniProt P14097 24-92); experiment: SPR, R17 on CM5 chip; t1/2
T3 construct: also called mCCL4
T3 sequence: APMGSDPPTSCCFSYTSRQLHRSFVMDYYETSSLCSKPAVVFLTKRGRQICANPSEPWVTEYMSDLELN

murine CCL5 = molecular target: T4, murine CCL5 (mouse, UniProt P30882 24-91); experiment: SPR, R17 on CM5 chip; t1/2
T4 construct: also called mCCL5
T4 sequence (P30882 24-91 limits assumed): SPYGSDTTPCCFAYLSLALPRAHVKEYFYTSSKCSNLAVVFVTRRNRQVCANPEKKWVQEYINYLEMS

human CCL5 = molecular target: T5, human CCL5 (human, UniProt P13501 24-91); experiment: SPR, R17 on CM5 chip; t1/2
T5 construct: also called hCCL5
T5 sequence: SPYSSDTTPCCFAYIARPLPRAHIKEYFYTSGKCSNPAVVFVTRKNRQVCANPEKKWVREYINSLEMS

murine CCL8 [2] = molecular target: T6, murine CCL8 (mouse, UniProt Q9Z121 24-97); experiment: SPR, R17 on CM5 chip; t1/2
T6 construct: also called mCCL8
T6 sequence: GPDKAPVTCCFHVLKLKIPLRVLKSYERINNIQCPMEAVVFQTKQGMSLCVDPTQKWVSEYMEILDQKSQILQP

murine CCL20 [3] = molecular target: T7, murine CCL20 (mouse, UniProt O89093 28-97); experiment: SPR, R17 on CM5 chip; t1/2
T7 construct: also called mCCL20
T7 sequence: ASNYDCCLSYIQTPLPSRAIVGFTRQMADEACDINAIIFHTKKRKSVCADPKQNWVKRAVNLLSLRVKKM

murine CCL24 = molecular target: T8, murine CCL24 (mouse, UniProt Q9JKC0 27-119); experiment: SPR, R17 on CM5 chip; t1/2
T8 construct: also called mCCL24
T8 sequence: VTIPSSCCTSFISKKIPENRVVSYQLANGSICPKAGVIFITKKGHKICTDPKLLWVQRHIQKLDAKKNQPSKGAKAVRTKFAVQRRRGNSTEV

murine CCL12 [4] = molecular target: T9, murine CCL12 (mouse, UniProt Q62401 23-104); experiment: SPR, R17 on CM5 chip; t1/2
T9 construct: also called mCCL12
T9 sequence: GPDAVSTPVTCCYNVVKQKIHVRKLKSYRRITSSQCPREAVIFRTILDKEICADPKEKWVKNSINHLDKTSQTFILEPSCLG

[5] = molecular target: T10, murine XCL1 (lymphotactin) (mouse, UniProt P47993 22-114); experiment: SPR, R17 on CM5 chip; t1/2
T10 construct: also called mXCL1; lymphotactin (XCL1)
T10 sequence: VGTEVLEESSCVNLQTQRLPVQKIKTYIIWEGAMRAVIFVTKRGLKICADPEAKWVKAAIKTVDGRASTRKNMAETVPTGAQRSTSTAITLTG

CCL9 [6] = molecular target: T11, CCL9 (UniProt P51670 22-122); experiment: SPR, R17 on CM5 chip; t1/2
T11 sequence: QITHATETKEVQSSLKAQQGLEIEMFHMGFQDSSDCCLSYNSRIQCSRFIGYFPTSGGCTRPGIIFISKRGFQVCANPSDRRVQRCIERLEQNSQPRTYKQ

human CCL2 [7] = molecular target: T12, human CCL2 (human, UniProt P13500 24-99); experiment: SPR saturation binding (KD,eq), R17 on CM5 chip
T12 construct: also called hCCL2
T12 sequence (P13500 24-99 limits assumed): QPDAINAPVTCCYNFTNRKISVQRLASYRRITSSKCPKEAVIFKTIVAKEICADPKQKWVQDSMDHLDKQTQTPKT

human CCL3 = molecular target: T13, human CCL3 (human, UniProt P10147 23-92); experiment: SPR saturation binding (KD,eq), R17 on CM5 chip
T13 construct: also called hCCL3
T13 sequence: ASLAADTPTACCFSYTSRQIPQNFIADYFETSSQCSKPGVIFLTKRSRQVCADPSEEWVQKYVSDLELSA

murine CCL2 [8] = molecular target: T1, murine CCL2; experiment: SPR, R17 on CM5 chip, chemokine injected; global 1:1 mass transport fit
human CCL2 [9] = molecular target: T12, human CCL2; experiment: as above
murine CCL8 [10] = molecular target: T6, murine CCL8; experiment: as above
murine CCL20 [11] = molecular target: T7, murine CCL20; experiment: as above
murine CCL12 [12] = molecular target: T9, murine CCL12; experiment: as above
CCL9 [13] = molecular target: T11, CCL9; experiment: as above
murine CCL2 [14] = molecular target: T1, murine CCL2; experiment: SPR, R17 on CM5 chip; KD,eq from saturation binding, Scatchard analysis
murine CCL8 [15] = molecular target: T6, murine CCL8; experiment: as above
[16] = molecular target: T10, murine XCL1 (lymphotactin); experiment: as above

T1 sequence (P10148 24-148 limits assumed): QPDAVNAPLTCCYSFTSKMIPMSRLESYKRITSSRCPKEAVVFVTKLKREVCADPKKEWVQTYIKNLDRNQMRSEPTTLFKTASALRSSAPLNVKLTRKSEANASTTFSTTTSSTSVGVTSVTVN

B1: R17 chemokine decoy receptor of Rodent herpesvirus Peru (RHVP), wild type, C-terminal 8-His fusion (receptor)
chain: GPVGEPVASEINEASKVSSRLLTQDILFRKDRQATISLPIKLPVEDIITQTCDKITYGPLKFLDLLEKETAVLPLSTDITCPACLGRAVLVGKWECPAHVAVNESDLTVFGPNKEEHVPQFVTVQQPSDGKMQRLFFAKFLGTEESLAVLRVPGPDGHLCIQEALIHFKELSGAGVCSLWKANDSREEGLEMKQVDCLETTVLENQTCIATTLSKKIYHRLYCGERLMTGGQVSTRVLLTALGFYKRQPYTFHRVPKGMVYVHLIDSGSEDYMEYSECEEVTPGRYEDKQISYTFYTDLFQTADGEPVLASVWGTSGLKDSAYESCAFVIPTKGRRKLVPRRIMSKCYPFRLTYHPSTMTVRLDVRVEKHHGATDQGFVFLKMESGTYSEGREYYLDRVLWGEDSSTNNVLQ
notes: not shown: C-terminal 8-His tag
t1/2 (murine CCL2 [1]): 34.6 s | t1/2 (murine CCL3): > 1000 s | t1/2 (murine CCL4): > 1000 s | t1/2 (murine CCL5): > 1000 s | t1/2 (human CCL5): > 1000 s | t1/2 (murine CCL8 [2]): 6.9 s | t1/2 (murine CCL20 [3]): 32.2 s | t1/2 (murine CCL24): > 1000 s | t1/2 (murine CCL12 [4]): 6.9 s | t1/2 [5]: > 1000 s | t1/2 (CCL9 [6]): 6.8 s | Kd (human CCL2 [7]): 12 nM | Kd (human CCL3): 1.4 nM | koff (murine CCL2 [8]): 0.02 s⁻¹ | kon (murine CCL2 [8]): 2e+06 M⁻¹ s⁻¹ | koff (human CCL2 [9]): 0.012 s⁻¹ | kon (human CCL2 [9]): 1e+06 M⁻¹ s⁻¹ | koff (murine CCL8 [10]): 0.1 s⁻¹ | kon (murine CCL8 [10]): 1.3e+06 M⁻¹ s⁻¹ | koff (murine CCL20 [11]): 0.031 s⁻¹ | kon (murine CCL20 [11]): 6.5e+06 M⁻¹ s⁻¹ | koff (murine CCL12 [12]): 0.01 s⁻¹ | kon (murine CCL12 [12]): 8.9e+06 M⁻¹ s⁻¹ | koff (CCL9 [13]): 0.01 s⁻¹ | kon (CCL9 [13]): 3.6e+06 M⁻¹ s⁻¹ | Kd (murine CCL2 [14]): 10 nM | Kd (murine CCL8 [15]): 80 nM | Kd [16]: 4.2 nM
